Laboratory results as given in US20040043420A1, “Method of identifying conformation-sensitive binding peptides and uses thereof” (priority 2003, published 2004).
Each block holds one molecule with its values, some of them ahead of it.

Columns and labels:
[1] = target: T1, glucocorticoid receptor (GR) (Homo sapiens, UniProt P04150); test: Yeast-based two-hybrid test of peptide interaction with full-length glucocorticoid receptor; format: cell-based
T1 construct: in the yeast based system using full-length receptor; expressed in transfected cells; host or cells: yeast
T1 sequence (P04150 1-777): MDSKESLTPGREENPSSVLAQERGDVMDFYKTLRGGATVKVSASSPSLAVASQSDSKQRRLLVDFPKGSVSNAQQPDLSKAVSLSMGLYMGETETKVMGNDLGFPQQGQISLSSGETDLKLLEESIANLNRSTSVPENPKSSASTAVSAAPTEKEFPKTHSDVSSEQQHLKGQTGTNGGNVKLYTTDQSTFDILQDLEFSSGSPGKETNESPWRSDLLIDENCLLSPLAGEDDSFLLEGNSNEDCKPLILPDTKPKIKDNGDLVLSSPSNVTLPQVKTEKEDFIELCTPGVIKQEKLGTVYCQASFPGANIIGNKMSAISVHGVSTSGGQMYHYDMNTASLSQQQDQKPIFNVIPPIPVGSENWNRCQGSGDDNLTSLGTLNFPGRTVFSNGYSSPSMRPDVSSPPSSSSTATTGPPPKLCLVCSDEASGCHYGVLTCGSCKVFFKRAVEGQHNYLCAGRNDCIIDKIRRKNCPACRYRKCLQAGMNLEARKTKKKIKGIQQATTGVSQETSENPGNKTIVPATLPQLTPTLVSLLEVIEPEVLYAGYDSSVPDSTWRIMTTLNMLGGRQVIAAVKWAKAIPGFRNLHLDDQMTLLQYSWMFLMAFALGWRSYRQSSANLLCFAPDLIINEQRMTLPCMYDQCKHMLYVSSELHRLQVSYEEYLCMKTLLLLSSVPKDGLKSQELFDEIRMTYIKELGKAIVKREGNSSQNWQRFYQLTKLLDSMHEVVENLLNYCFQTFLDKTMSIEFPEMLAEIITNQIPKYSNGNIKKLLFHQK
Text: (§1) We have performed a limited amount of in vivo screenings for peptides to GR in the yeast based system using full-length receptor and either dexamethasone or medroxyprogesterone acetate as ligands. We have a single peptide sequence that we have followed up on based on its specificity profile in yeast. This peptide was isolated on MPA liganded GR, and is termed GRMPA. Its sequence is as follows: […] (SEQ ID NO:268).

[2] = target: T1, glucocorticoid receptor (GR); test: Mammalian cell (Huh-7) based peptide/glucocorticoid receptor interaction assay, luciferase; conditions: all ligands (agonists, partial agonists, and antagonists)
Text: as §1
We have isolated numerous peptides using phage display to the GR ligand binding domain and have formatted cell based assays in mammalian cells for screening large compound sets. We have formatted the assay as stated above for 96-well plates and for 384-well plates. To format the assay to 384-well plates the number of cells per well were scaled down to 5,000 Huh-7 cells per well. Similar ratios of DNA constructs and lipection reagents were used in both assays for transfections prior to seeding the cells into the assay plates. We have also carried out a screen of a 60,000 compound set with one of the phage display isolated peptides in this mammalian cell based format. This peptide interacts with the glucocorticoid receptor in the presence of both agonists (e.g. fluticasone propionate and dexamethasone) and antagonists (RU486). For the compound screen cells were transfected in suspension with DNA constructs as described above prior to seeding 5,000 cells per well. […]

ER α [3] = target: T2, ER α (UniProt P03372 1-595, limits assumed); test: peptide probe binding to ERα, Raloxifene
T2 construct: also called estrogen receptor α; ERα-ERE
T2 sequence (looked up): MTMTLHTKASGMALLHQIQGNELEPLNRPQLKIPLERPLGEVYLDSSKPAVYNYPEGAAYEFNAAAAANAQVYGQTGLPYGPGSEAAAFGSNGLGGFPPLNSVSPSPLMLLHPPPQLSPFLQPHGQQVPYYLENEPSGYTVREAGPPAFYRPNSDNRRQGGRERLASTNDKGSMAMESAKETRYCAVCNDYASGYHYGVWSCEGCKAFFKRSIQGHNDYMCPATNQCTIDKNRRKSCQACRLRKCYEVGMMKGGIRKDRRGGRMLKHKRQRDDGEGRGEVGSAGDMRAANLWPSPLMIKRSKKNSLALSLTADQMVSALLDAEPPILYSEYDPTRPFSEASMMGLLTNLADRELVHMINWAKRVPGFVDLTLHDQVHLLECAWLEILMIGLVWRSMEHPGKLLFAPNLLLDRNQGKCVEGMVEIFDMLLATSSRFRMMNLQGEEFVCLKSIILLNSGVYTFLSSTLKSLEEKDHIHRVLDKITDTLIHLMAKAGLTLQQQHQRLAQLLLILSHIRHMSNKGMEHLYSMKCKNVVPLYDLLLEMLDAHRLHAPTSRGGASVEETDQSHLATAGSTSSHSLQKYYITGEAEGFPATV

ER α [4] = target: T2, ER α; test: peptide probe binding to ERα, ICI 182,780
ER α [5] = target: T2, ER α; test: peptide probe binding to ERα, 4-OH Tamoxifen
ER α [6] = target: T2, ER α; test: peptide probe binding to ERα, Buffer
ER α [7] = target: T2, ER α; test: peptide probe binding to ERα, Diethylstilbesterol
ER α [8] = target: T2, ER α; test: peptide probe binding to ERα, GW7604
ER β [9] = target: T3, ER β (UniProt Q92731 1-530, limits assumed); test: peptide probe binding to ERβ, Estriol
T3 construct: In vitro; also called estrogen receptor β; ERβ-ERE

ER α [10] = target: T2, ER α; test: phage ELISA, ICI 182,780 1 µM
ER α [11] = target: T2, ER α; test: peptide probe binding to ERα, 17β-Estradiol
ER β [12] = target: T3, ER β; test: peptide probe binding to ERβ, GW 7604
ER β [13] = target: T3, ER β; test: peptide probe binding to ERβ, 17α-Estradiol
ER β [14] = target: T3, ER β; test: peptide probe binding to ERβ, Clomiphene
ER β [15] = target: T3, ER β; test: peptide probe binding to ERβ, 4-OH Tamoxifen
ER β [16] = target: T3, ER β; test: peptide probe binding to ERβ, Raloxifene
ER β [17] = target: T3, ER β; test: peptide probe binding to ERβ, 17β-Estradiol
ER β [18] = target: T3, ER β; test: peptide probe binding to ERβ, Buffer
ER β [19] = target: T3, ER β; test: peptide probe binding to ERβ, Nafoxidine
ER β [20] = target: T3, ER β; test: peptide probe binding to ERβ, Diethylstilbesterol
ER α [21] = target: T2, ER α; test: peptide probe binding to ERα, Nafoxidine
ER β [22] = target: T3, ER β; test: phage ELISA, ICI 182,780 1 µM
ER β [23] = target: T3, ER β; test: peptide probe binding to ERβ, ICI 182,780
ER α [24] = target: T2, ER α; test: peptide probe binding to ERα, Estriol
ER α [25] = target: T2, ER α; test: peptide probe binding to ERα, 17α-Estradiol
ER α [26] = target: T2, ER α; test: affinity of phage class for unliganded ER α

T3 sequence (Q92731 whole entry): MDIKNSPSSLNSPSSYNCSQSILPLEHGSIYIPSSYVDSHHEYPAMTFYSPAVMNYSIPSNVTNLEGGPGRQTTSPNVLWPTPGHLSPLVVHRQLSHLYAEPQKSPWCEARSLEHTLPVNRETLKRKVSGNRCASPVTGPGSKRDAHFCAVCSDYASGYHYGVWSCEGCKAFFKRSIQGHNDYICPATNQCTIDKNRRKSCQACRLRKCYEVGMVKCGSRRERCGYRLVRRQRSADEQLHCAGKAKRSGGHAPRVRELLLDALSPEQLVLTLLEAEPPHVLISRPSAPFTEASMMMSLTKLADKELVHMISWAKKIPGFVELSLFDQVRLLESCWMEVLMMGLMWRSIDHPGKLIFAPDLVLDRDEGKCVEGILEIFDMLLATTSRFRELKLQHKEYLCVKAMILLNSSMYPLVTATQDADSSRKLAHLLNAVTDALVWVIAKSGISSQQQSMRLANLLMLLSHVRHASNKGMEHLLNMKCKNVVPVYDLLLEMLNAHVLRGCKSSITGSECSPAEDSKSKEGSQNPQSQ

B1: T1-10 (peptide)
peptide: SRLPPSVFSMCGSEVCLSR
notes: also called 9T-β; 9Tβ
Equiv. (ER α [3]): 0%
Equiv. (ER α [4]): -100%
Equiv. (ER α [5]): 100%
Equiv. (ER α [6]): 0%
Equiv. (ER α [7]): 0%
Equiv. (ER α [8]): 0%
Equiv. (ER β [9]): -75%
phage ELISA grade (ER α [10]): 0

B2: 14T-β (peptide)
peptide: SSPGSREWFKDMLSR
notes: also called α/β V; AB5
Equiv. (ER α [3]): 0%
Equiv. (ER α [11]): 0%
Equiv. (ER β [12]): 0%
Equiv. (ER α [4]): 0%
Equiv. (ER β [13]): 0%
Equiv. (ER β [14]): 13%
Equiv. (ER β [15]): 100%
Equiv. (ER α [5]): 100%
Equiv. (ER β [16]): 0%
Equiv. (ER β [17]): 0%
Equiv. (ER β [18]): 0%
Equiv. (ER β [19]): 0%
Equiv. (ER β [20]): 0%
Equiv. (ER α [6]): 0%
Equiv. (ER α [7]): 0%
Equiv. (ER α [8]): 0%
Equiv. (ER β [9]): 0%
Equiv. (ER α [21]): 0%
phage ELISA grade (ER β [22]): 0
Equiv. (ER β [23]): 0%
Equiv. (ER α [24]): 0%
Equiv. (ER α [25]): 0%

Continued, in another order:

Interaction with GR in yeast in the presence of full agonists ([1]; fluticasone propionate and dexamethasone): not full agonists
Interaction with GR in yeast in the presence of partial agonists and antagonists ([1]; partial agonists MPA, cortivazol, deoxycorticosterone, antagonist RU486): interacted
Molecule: EFVARYGQLLGWRHPCS [GRMPA]
Interaction with GR in mammalian cells in the presence of ligands [2]: interacted in the presence of all ligands

binding result (ER α [26]): binds
B3: #41 ER + estradiol (Table 3) (peptide)
peptide: HGPLTLNLLRSSGG
